# Source: patent US5985836A, “Alpha-1 proteinase inhibitor binding peptides” (Bayer Corporation, priority 1998, dated 1999)
# Ends that are not written are not given here.
# Experiments:
# Immunoglobulin G (IgG) = assay: Purification from Effluent II+III, IgG mass balance; type: binding, human; details: 1 ml Eff. II+III, 4° C.
# Protocol: (§1) Sequences 1-11 and 15 were assayed with Effluent II+III (Eff. II+III). Eff. II+III is a process intermediate in the Cohn plasma fractionation process. The feed stream contains 20% (by volume) ethanol, 20-25 mg/ml hSA and approximately 1 mg/ml AlPI. The stream also contains other proteins including anti-thrombin III (AT3), immunoglobin G (IgG), immunoglobin A (IgA), apolipoprotein alpha-1 (Apo A-1), transferrin (Trf), haptoglobin (Hpt), and alpha-1 acid glycoprotein (AAG) at concentrations ranging from 0.1-1 mg/ml.
# (§2) The columns were assayed using the same technique as the hSA+AlPI experiments, allowing for a 10 minute residence time followed by a constant flow rate of 865 μl/min with step elutions of 1M NaCl, 3M NaCl, and 2% acetic acid. All experiments were conducted at 4° C. The mass balances for the injection of 1 ml Eff. […] The AlPI was enriched from 3% of the total protein in the feed to upwards of 50% in the acid eluate.
# A1PI [1] = molecular target: T1, A1PI (Homo sapiens, UniProt P01009); assay: Purification of A1PI from Effluent II+III on peptide column, A1PI mass balance; type: binding; details: A1PI, 1 ml Eff. II+III, 4° C.
# T1 construct: Human plasma is currently the only approved source of therapeutic AlPI
# T1 sequence (P01009 25-418): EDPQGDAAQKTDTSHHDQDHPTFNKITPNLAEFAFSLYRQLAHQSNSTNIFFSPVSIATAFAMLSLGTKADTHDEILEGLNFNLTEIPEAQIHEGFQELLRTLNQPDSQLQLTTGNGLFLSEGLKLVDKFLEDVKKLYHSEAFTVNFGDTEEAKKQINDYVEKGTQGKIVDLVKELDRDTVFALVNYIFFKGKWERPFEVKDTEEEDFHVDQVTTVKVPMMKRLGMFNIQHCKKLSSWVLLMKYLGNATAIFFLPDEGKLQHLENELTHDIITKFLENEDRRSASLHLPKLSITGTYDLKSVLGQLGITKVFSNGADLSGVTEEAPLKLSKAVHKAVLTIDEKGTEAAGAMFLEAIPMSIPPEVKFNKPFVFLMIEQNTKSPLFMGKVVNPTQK
# Protocol: as §1, §2
# A1PI [2] = molecular target: T1, A1PI; assay: A1PI binding on peptide-resin column, injection of 1 mg A1PI in equilibration buffer; details: 1 mg A1PI in equilibration buffer
# How it was run: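 Percent of total eluted A1PI per fraction (flowthrough, NaCl steps, 2% acetic acid) determined by A280 integration or immunonephelometry. Columns of peptide-derivatized A-Totda-Toyopearl resin (0.1 mmole/g) received 1 mg A1PI at 4 °C or 20 °C, flow 865 or 523 μl/min.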
# [3] = molecular target: T2, apolipoprotein alpha-1 (Apo A-1) (Homo sapiens, UniProt P02647); assay: Purification from Effluent II+III, Apo A-1 mass balance; type: binding; details: 1 ml Eff. II+III, 4° C.
# T2 construct: Eff; II+III is a process intermediate in the Cohn plasma fractionation process; tissue Bayer Corporation (Clayton, N.C.); host or cells: plasma fraction: Cohn Effluent II+III
# T2 sequence (P02647 19-267): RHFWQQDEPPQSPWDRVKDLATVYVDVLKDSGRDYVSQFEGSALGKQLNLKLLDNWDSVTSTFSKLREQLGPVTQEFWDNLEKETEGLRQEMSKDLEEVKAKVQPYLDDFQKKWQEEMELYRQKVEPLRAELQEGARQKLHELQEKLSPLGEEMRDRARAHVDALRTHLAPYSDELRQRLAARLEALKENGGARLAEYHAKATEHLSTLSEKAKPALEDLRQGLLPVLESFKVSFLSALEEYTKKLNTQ
# Protocol: as §1, §2
# Immunoglobulin A (IgA) = assay: Purification from Effluent II+III, IgA mass balance; type: binding, human; details: 1 ml Eff. II+III, 4° C.
# Protocol: as §1, §2
# A1PI [4] = molecular target: T1, A1PI; assay: A1PI purification from 5 mg hSA + 1 mg A1PI on peptide column, A1PI mass balance; type: binding; details: A1PI, 5 mg hSA + 1 mg A1PI, 4° C.
# Protocol: Confirmatory binding assays were performed in a column chromatographic format on a microbore HPLC using individual peptide sequences synthesized directly onto the Toyopearl 650 M Chelate resin which had been modified with Totda followed by an alanine residue (A-Totda-Toyopearl), at a final substitution density of 0.1 mmole/g resin. The resin was packed into 0.4×5 cm columns (Thomson, Springfield, Va.) and tested on the Michrom HPLC system (Michrom BioResources, Auburn, Calif.). The elution program for all trials utilized the following method. The column was pre-equilibrated with equilibration buffer (as above). 1 ml of sample was injected and allowed sufficient time to flowthrough the column using equilibration buffer. The column was then washed with step elutions of 1M NaCl and 3M NaCl in equilibration buffer. The column was exposed to equilibration buffer with 0.1M NaCl. Any remaining protein was eluted with elution buffer (2% by volume glacial acetic acid in water).
# A Gilson FC204 fraction collector at the HPLC outlet collected individual eluates for further analysis. Fractions collected from the 2% acetic acid eluates were neutralized with 2M Tris, pH 10.5 to bring the pH to neutrality. The protein samples were reconstituted in equilibration buffer unless otherwise stated. The samples were analyzed by the integration of the absorbance at 280 nm or by immunonephelometry. The specific method of determination is presented for each figure.
# Columns were assayed with a mixture of 5 mg human serum albumin (hSA)+1 mg AlPI at 4° C. (Table 4, Seq. ID 1-11, 15, 17) and 20° C. (Table 5, Seq. ID 1-10, 13, 15, 17). The chromatography method was modified to provide for a 10 minute residence time of sample in the column by decreasing the flow to 17 μl/min (10 cm/hr) upon injection. Following the incubation, the flow was set at 865 μl/min (413 cm/hr) for the step elutions of 1M NaCl, 3M NaCl, and 2% acetic acid. The mass balances presented are based upon immunonephelometry. The Percent Eluted value is protein-specific and based on the amount of the protein eluted in a […]
# [5] = * as in Tables 4, 5 (below detection limit)
substance,measurement,setting,value
QYHFWY,"Percent Eluted by Fraction, 1M NaCl",Immunoglobulin G (IgG),10%
same,"Percent Eluted by Fraction, 2% Acetic Acid",Immunoglobulin G (IgG),0%
same,"Percent Eluted by Fraction, 3M NaCl",Immunoglobulin G (IgG),0%
same,"Percent Eluted by Fraction, Flow",Immunoglobulin G (IgG),90%
same,"Mass Protein per Eluate Fraction, 1M NaCl",Immunoglobulin G (IgG); [5],0.02 mg
same,"Mass Protein per Eluate Fraction, Flow",Immunoglobulin G (IgG); [5],0.21 mg
same,"Percent Eluted by Fraction, 1M NaCl",A1PI [1],6%
same,"Percent Eluted by Fraction, 2% Acetic Acid",A1PI [1],75%
same,"Percent Eluted by Fraction, 3M NaCl",A1PI [1],0%
same,"Percent Eluted by Fraction, Flow",A1PI [1],20%
same,"Mass Protein per Eluate Fraction, 1M NaCl",A1PI [1]; [5],0.06 mg
same,"Mass Protein per Eluate Fraction, 2% Acetic Acid",A1PI [1]; [5],0.80 mg
same,"Mass Protein per Eluate Fraction, Flow",A1PI [1]; [5],0.21 mg
same,"Percent A1PI Eluted by Fraction Based on Absorbance at 280 nm, 1M NaCl",A1PI [2]; 4° C.,74%
same,"Percent A1PI Eluted by Fraction Based on Absorbance at 280 nm, 2% Acetic Acid",A1PI [2]; 4° C.,26%
same,"Percent A1PI Eluted by Fraction Based on Absorbance at 280 nm, Flowthrough",A1PI [2]; 4° C.,0%
same,"Percent A1PI Eluted by Fraction, 1M NaCl",A1PI [2]; 20° C.,0%
same,"Percent A1PI Eluted by Fraction, 2% Acetic Acid",A1PI [2]; 20° C.,4%
same,"Percent A1PI Eluted by Fraction, Flowthrough",A1PI [2]; 20° C.,96%
same,"Percent Eluted by Fraction, 1M NaCl",[3],0%
same,"Percent Eluted by Fraction, 2% Acetic Acid",[3],0%
same,"Percent Eluted by Fraction, 3M NaCl",[3],0%
same,"Percent Eluted by Fraction, Flow",[3],0%
same,"Percent Eluted by Fraction, 1M NaCl",Immunoglobulin A (IgA),31%
same,"Percent Eluted by Fraction, 2% Acetic Acid",Immunoglobulin A (IgA),38%
same,"Percent Eluted by Fraction, 3M NaCl",Immunoglobulin A (IgA),0%
same,"Percent Eluted by Fraction, Flow",Immunoglobulin A (IgA),31%
same,"Mass Protein per Eluate Fraction, 1M NaCl",Immunoglobulin A (IgA); [5],0.11 mg
same,"Mass Protein per Eluate Fraction, 2% Acetic Acid",Immunoglobulin A (IgA); [5],0.13 mg
same,"Mass Protein per Eluate Fraction, Flow",Immunoglobulin A (IgA); [5],0.11 mg
same,"Mass Protein per Eluate Fraction, 1M NaCl",A1PI [4]; * Below detection limit,0.35 mg
same,"Mass Protein per Eluate Fraction, 2% Ac. Acid",A1PI [4]; * Below detection limit,0.35 mg
same,"Mass Protein per Eluate Fraction, Flow",A1PI [4]; * Below detection limit,0.06 mg
same,"Percent Eluted by Fraction, 1M NaCl",A1PI [4]; relative to total eluted,46%
same,"Percent Eluted by Fraction, 2% Ac. Acid",A1PI [4]; relative to total eluted,46%
same,"Percent Eluted by Fraction, 3M NaCl",A1PI [4]; relative to total eluted,0%
same,"Percent Eluted by Fraction, Flow",A1PI [4]; relative to total eluted,7%
